The results in this text go back to US20220396632A1 (VERSEAU THERAPEUTICS, published 2022).

Assay [1] addresses T1, Biotin Y46,48,51(SO3) PSGL-1(42-62) peptide (human, sulfotyrosine at Y46, Y48 and Y51; C-terminal Lys-biotin).
T1 construct: also called fully sulfated N-terminal PSGL-1 peptide
T1 peptide: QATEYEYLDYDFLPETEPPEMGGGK
Briefly: ELISA, immobilized biotin peptide. The procedure: (§1) A typical ELISA was performed by coating high binding half-well plates (Corning Cat. #3690) with 3 ug/mL/25 ul per well of biotinylated N-terminal PSGL-1 peptides, which incorporated residues 42 to 62 of the protein, in PBS, pH 7.4, overnight at 4° C. The peptide was unmodified or contained sulfated tyrosine at all 3 tyrosine positions (46, 48, and 51) or at one position (tyr51) (Table 7).
(§2) PSGL-1 protein or peptide served as a positive control. […] […] […] For each antibody, duplicate values were averaged and average assay background was subtracted.
(An ELISA detects its analyte on a solid surface through an enzyme-linked reagent.)

The target of assay [2] is T2, Biotin PSGL-1(42-62) peptide, unmodified (human, C-terminal Lys-biotin).
T2 construct: Residues 42-62 followed by GGGK-biotin; also called WT; wild-type
T2 peptide: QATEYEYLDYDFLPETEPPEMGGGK
Nature of the assay: ELISA, immobilized biotin peptide. The procedure: as §1, §2

The target of assay [3] is T3, Sulfotyrosine D6 biotin peptide (human).
T3 construct: also called D6 peptide
T3 peptide: ENSSFY[sY][sY]D[sY]LDEVAFGGK(Biotin)
Briefly: ELISA, 50 nM mAb. The procedure: (§3) Recombinant PSGL-1-hFc1 chimera protein consisting of PSGL-1's extracellular domain (ECD) served as a positive control. […] Primary antibody was added (25 ul per well) in duplicate at 50 nM in assay buffer (blocking buffer containing 0.05% Tween®20) into test and control (just blocked) wells and the plate incubated for 45 min at 37° C.

Assay [4] deals with T4, Sulfotyr fibrinogen γ peptide (not fully specified; Y8 and Y12 sulfated (SO3); C-terminal biotin).
T4 construct: also called Fibrinogen gamma peptide; human sulfotyrosinylated fibrinogen peptide
T4 peptide: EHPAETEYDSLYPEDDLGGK
Briefly: ELISA, 50 nM mAb. The procedure:
as §3

Assay [5] deals with T5, SulfoTyr C4 peptide (not fully specified; Y4, Y7 and Y9 sulfated (SO3); C-terminal biotin).
T5 construct: also called C4 alpha chain peptide; human sulfotyrosinylated C4 peptide
T5 peptide: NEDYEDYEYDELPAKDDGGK
Nature of the assay: ELISA, 50 nM mAb. The procedure:
as §3

In assay [6] the target is T6, Human complement C4 protein (Millipore Sigma, Cat. 204886) (human, UniProt P0C0L4 20-675; P0C0L4 680-1446; P0C0L4 1454-1744, limits assumed, natural sulfotyrosines).
T6 construct: mature
T6 sequence (P0C0L4 20-675 limits assumed, form in doubt, chain 1 of 3): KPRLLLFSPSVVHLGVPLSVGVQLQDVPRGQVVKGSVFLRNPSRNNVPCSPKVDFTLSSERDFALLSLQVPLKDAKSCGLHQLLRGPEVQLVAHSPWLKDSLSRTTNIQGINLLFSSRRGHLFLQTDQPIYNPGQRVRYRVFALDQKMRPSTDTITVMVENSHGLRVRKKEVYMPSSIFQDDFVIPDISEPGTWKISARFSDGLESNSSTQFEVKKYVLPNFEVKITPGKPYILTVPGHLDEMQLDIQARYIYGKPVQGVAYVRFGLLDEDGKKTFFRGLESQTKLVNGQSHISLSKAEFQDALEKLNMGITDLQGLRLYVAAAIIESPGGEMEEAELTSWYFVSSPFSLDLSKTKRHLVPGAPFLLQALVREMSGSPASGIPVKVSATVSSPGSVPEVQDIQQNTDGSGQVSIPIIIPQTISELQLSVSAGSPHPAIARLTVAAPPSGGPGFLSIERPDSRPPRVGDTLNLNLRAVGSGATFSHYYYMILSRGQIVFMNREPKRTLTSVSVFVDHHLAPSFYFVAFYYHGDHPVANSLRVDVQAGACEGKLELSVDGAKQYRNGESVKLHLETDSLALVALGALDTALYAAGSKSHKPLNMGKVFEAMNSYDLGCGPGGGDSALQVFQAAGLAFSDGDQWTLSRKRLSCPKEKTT
T6 sequence (P0C0L4 680-1446 limits assumed, form in doubt, chain 2 of 3): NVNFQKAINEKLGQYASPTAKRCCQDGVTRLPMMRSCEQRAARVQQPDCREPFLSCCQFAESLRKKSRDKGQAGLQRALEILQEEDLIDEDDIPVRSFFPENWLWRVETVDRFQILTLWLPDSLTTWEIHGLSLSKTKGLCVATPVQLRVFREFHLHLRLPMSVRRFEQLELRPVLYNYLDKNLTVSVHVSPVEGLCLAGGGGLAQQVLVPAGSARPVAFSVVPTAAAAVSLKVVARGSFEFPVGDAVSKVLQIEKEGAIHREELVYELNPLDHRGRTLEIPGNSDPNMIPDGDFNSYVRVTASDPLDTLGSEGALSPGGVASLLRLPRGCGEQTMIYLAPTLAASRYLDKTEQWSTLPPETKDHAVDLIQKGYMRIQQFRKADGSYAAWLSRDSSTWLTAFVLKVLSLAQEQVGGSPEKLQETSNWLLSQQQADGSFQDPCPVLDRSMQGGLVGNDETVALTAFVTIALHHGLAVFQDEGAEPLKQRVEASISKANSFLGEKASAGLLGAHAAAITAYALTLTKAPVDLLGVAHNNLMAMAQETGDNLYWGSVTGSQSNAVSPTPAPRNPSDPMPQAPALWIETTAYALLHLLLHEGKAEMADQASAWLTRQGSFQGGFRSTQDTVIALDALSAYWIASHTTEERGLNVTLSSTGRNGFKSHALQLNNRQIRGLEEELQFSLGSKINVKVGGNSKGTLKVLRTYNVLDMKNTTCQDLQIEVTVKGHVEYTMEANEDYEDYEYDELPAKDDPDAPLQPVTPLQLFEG
T6 sequence (P0C0L4 1454-1744 limits assumed, form in doubt, chain 3 of 3): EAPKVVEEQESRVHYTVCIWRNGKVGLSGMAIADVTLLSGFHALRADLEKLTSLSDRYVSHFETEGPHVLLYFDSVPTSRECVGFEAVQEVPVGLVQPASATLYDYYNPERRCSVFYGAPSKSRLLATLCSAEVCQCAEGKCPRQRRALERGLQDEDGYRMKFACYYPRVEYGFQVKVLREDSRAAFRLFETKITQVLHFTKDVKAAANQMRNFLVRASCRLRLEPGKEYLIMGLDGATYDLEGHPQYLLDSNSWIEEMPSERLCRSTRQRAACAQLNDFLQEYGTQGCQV
Nature of the assay: ELISA, 50 nM mAb. The procedure:
as §3

For assay [7], the target named is T7, Sulfotyrosine CCR2b biotin peptide (human).
T7 construct: also called CCR2b peptide
T7 peptide: TTFFD[sY]D[sY]GAPSHGGK(Biotin)
Briefly: ELISA, 50 nM mAb. The procedure:
as §3

The target of assay [8] is T8, SulfoCCK biotin peptide (human).
T8 construct: also called sulfotyrosine CCK peptide
T8 peptide: SHRISDRD[sY]MGWMDFGGK(Biotin)
Nature of the assay: ELISA, 50 nM mAb. The procedure: as §3

The target in assay [9] is T9, Human fibrinogen protein (ThermoFisher, RP-43142) (human, UniProt P02671 20-629; P02675 31-491; P02679 27-453, limits assumed, natural sulfotyrosines).
T9 construct: mature; Native dimer with 3 pairs of non-identical chains; also called gamma-fibrinogen; γ fibrinogen protein
T9 sequence (looked up) 1: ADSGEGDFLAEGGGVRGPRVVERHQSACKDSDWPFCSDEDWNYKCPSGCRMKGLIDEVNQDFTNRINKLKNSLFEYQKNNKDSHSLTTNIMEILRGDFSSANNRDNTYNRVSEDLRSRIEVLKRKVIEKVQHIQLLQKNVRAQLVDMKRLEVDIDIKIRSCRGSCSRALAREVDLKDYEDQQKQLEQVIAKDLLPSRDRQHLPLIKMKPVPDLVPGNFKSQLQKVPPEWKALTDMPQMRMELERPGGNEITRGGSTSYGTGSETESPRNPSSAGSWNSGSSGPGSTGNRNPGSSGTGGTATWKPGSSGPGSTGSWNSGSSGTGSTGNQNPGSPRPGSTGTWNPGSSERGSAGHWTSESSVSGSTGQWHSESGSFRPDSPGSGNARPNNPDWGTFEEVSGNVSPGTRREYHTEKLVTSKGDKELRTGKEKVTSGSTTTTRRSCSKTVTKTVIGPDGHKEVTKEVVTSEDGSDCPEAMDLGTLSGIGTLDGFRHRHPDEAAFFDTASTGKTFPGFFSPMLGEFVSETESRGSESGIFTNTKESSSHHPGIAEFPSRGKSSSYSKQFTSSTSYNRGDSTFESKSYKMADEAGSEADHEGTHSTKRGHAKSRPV
T9 sequence (looked up) 2: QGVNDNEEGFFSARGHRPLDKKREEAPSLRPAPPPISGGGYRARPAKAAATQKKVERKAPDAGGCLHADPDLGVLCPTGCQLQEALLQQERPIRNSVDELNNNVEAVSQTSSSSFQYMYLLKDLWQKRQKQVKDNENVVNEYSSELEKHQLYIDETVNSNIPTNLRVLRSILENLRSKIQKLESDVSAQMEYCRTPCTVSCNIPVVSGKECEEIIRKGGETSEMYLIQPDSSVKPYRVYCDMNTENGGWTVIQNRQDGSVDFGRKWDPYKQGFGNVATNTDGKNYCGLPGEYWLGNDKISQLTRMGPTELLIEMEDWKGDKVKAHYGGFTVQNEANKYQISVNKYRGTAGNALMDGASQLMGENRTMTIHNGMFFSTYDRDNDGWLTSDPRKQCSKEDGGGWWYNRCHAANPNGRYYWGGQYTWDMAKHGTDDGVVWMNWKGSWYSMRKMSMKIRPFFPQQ
T9 sequence (looked up) 3: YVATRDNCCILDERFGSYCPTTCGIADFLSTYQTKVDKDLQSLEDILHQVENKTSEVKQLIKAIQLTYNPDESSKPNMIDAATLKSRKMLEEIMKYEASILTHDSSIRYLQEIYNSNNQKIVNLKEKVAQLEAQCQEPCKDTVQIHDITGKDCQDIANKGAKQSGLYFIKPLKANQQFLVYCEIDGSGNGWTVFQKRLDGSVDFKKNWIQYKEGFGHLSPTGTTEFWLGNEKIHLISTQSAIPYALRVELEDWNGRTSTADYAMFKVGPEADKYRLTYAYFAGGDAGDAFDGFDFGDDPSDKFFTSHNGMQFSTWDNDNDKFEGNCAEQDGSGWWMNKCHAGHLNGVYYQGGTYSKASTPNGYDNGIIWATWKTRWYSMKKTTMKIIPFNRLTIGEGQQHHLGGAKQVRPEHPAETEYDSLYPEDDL
Nature of the assay: ELISA, 50 nM mAb. The procedure: as §3

Assay [10] addresses T10, Cynomolgus PSGL-1(ECD)-hFc1 (cynomolgus macaque).
T10 construct: also called Cyno PSGL1-Fc; Cyno PSGL-1(ECD)-Fc
Briefly: ELISA, 20 nM mAb on plate cyno PSGL-1(ECD)-Fc. The procedure: Antibody binding to plate-immobilized cyno PSGL-1(ECD) was determined either at one concentration (20 nM) or by generating full antibody binding curves (0.003-200 nM). A typical ELISA was performed by overnight coating at 4° C. with 3 ug/mL/25 ul per well of recombinant cyno PSGL-1(ECD) protein in PBS, pH 7.4, in high binding half-well plates (Corning Cat. #3690). […] Anti-PSGL-1 IgG in assay buffer (blocking buffer containing 0.05% tween 20) was added into test and control wells (20 nM/25 ul/well) and the plate incubated for 45 min at 37° C. […] The plate was incubated for 45 min at 37° C., and mAb bound to plate-immobilized target determined at A450 nm using HRP substrate (3,3′,5,5′-tetramethylbenzidine (TMB)). For each antibody, duplicate values were averaged and assay background subtracted.

Assay [11] addresses T11, Scrambled Y42,52,63(SO3) PSGL-1(42-62) biotin peptide (sulfotyrosine at peptide positions 1, 11 and 22; C-terminal Lys-biotin).
T11 peptide: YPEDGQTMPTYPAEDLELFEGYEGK
Briefly: ELISA, immobilized biotin peptide. The procedure:
as §1, §2

The target of assay [12] is T12, Recombinant human PSGL-1(ECD)-hFc1 (R&D Systems, Cat. 3345-PS) (human, UniProt Q14242 42-305).
T12 construct: Bought; Gln42-Val295 counted on AAC50061; also called PSGL-1-Fc; PSGL-1-hFc1 chimera; not shown: human IgG1 Fc, Pro100-Lys330
T12 sequence: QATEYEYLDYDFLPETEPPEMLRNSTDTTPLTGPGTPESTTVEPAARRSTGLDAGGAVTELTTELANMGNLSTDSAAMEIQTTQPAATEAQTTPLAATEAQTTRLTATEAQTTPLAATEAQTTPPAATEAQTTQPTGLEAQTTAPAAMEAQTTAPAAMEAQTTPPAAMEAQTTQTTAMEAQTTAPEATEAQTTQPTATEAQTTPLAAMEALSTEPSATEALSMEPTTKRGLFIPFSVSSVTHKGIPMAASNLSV
Nature of the assay: ELISA, 50 nM mAb. The procedure:
as §3

Non-standard residues stand in square brackets, D forms with d. No end group written: not given here. *: point of attachment. Biotin = O=C1N[C@H]2[C@H](CS[C@H]2CCCCC(=O)*)N1; sY = N[C@@H](Cc1ccc(OS(=O)(=O)O)cc1)C(=O)O

Broadly, the EC50 is the concentration needed to bring the measured effect to its halfway point. The low end stands for greater potency, the high end for weaker potency.

B1: 01A04 (antibody, IgG4, V domains shown)
VH: EVQLVQSGAEVKKPGASVKVSCKASGYTFTSYYIHWVRQAPGQGLEWMGIIRPSGGSTSYAQKFQGRVTMTRDTSTSTVYMELSSLRSEDTAMYYCARVGVGSFDYWGQGTLVTVSS
VL: DIQMTQSPSTLSASVGDRVTITCRASQSVSNWLAWYQQKPGKAPKLLIYKASSLESGVPSRFSGSGSGTEFTLTISSLQPDDFATYYCQWFRTFGPGTKVDIK
Regarding B1, the figures for the “A450nm, 20 nM mAb” value in assay [1] and in [2] were 2.73 A450nm and 2.45 A450nm, respectively. In addition, the “binding normalized to PSGL-1” value in assay [3] was found to be 0.82; in [4], 0.16; in assay [5], 0.24; in assay [6], 0.87; in assay [7], 0.08; in [8], 0.87. The “binding normalized to PSGL-1” value in assay [9] came out at 0.8. For the same molecule, the A450nm in assay [10] turned out to be 1.81 A450 nm.

B2: 01A11 (antibody, IgG4, V domains shown)
VH: EVKLLESGGGLVQPGGSLRLSCATSGFSFSDYWMSWVRQAPGKGLEWVASIKKDGSEKYYVDSVKGRFTISRDNAKNSLYVQMNSLRAEDTAIYYCVVFGAWGPGTLVTVSS
VL: DIVMTQTPLSLPVTLGQPASISCRSGRSLVYSDGNTYLNWFQQRPGQSPRRLIYKVSNRDSGVPDRFSGGGSGTDFTLKISRVEAEDVAIYYCMQGTHWPPTFGQGTKLEIK
Take B2: the “A450nm, 20 nM mAb” value in [11] came to 0.03 A450nm; in assay [1], 2.67 A450nm; in assay [2], 1.12 A450nm. Besides, in assay [11], the binding result is on record as “no binding (tested: 20 nM)”. The “binding normalized to PSGL-1” value in assay [3] was determined as 0.11; in assay [4], 0.09; in [5], 0.07; in assay [6], 0.79; in [7] it was 0.63; in assay [8] it was 0.63. In addition, in assay [9], the “binding normalized to PSGL-1” value is 0.17. The A450nm in assay [10] worked out at 0.78 A450 nm.

B3: 01E01 (antibody, V domains shown)
VH: EVQLVQSGGGVVQPGRSLRLSCAASGFTFSSYGMHWVRQAPGKGLEWVAVISYDGSNKYYADSVKGRFTISRDNSKNTLYLQMHSLRAEDTAVYYCANLVGTTNSWGQGTLVTVSS
VL: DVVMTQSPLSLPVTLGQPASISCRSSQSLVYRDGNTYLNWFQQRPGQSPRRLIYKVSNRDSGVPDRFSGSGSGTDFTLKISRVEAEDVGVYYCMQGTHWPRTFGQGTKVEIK
In the case of B3, in [11], the binding result is “no binding (tested: 20 nM)”. Moreover, the entries for the “A450nm, 20 nM mAb” value in assay [1] and in assay [2] were 2.72 A450nm and 0.26 A450nm, respectively. The “binding normalized to PSGL-1” value in [3] is 0.75; in [4], 0.85; in assay [5] it was 0.83; in assay [6], 0.94; in [8] it was 0.58; in assay [9], 0.2. The A450nm in [12] stood at 2.32 A450nm; in [10], 0.83 A450 nm.

B4: 09B09 (antibody, IgG4, V domains shown)
VH: EVKLLESGGGLVQPGGSLRLSCAASGITFSTYAMMWVRQAPGKGLEWVSGISGSGASRYYADSVKGRFTISRDNSKNMLYLQMNSLRAEDTAVYYCAKKVLGRRKQYFDDWGQGTLVTVSS
VL: DIVMTQSPLSLPVTPGEPASISCRSSQSLLHSNGYNYLDWYLQRPGQSPQLLIYLGSHRASGVPDRFSGSGSGTEHTLKITTVAAEDVGVYYCMQALQSPPTFGQGTRLDIK
Consider B4, for which the “A450nm, 20 nM mAb” value in [1] was determined as 2.8 A450nm. Besides, the EC50 in assay [1] is 0.07 nM; in [2], around 0.05 nM. Besides, the “binding normalized to PSGL-1” value came out at 0.56 in assay [3]; 0.3 in [4]; 0.35 in assay [5]; 0.22 in assay [6]; 0.26 in [7]; 0.25 in assay [8]. Also, the “binding normalized to PSGL-1” value in assay [9] was -0.15. The values for the A450nm in assay [12] and in [10] were 1.96 A450nm and 1.77 A450 nm, respectively. Also, the binding result in assay [9] was “no binding (tested: 50 nM)”.
